The source of these data is US9266964.

The experiment has as its target human plasma kallikrein (human) (UniProt P03952). The experiment is described as follows: ELISA; signal on coated biotinylated human plasma kallikrein divided by signal on streptavidin; Fab. Background: An ELISA detects its analyte on a solid surface through an enzyme-linked reagent.

human plasma kallikrein (human), sequence (P03952 20-390, chain 1 of 2): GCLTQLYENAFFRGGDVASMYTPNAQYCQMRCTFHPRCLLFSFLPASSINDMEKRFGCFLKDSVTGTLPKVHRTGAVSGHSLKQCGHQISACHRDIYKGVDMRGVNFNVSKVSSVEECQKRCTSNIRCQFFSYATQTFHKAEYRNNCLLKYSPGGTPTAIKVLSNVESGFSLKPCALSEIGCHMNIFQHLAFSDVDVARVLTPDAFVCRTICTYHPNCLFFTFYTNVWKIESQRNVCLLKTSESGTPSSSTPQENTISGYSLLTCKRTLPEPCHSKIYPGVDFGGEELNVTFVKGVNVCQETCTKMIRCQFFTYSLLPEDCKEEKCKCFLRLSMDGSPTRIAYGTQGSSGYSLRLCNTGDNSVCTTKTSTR
human plasma kallikrein (human), sequence (P03952 391-638, chain 2 of 2): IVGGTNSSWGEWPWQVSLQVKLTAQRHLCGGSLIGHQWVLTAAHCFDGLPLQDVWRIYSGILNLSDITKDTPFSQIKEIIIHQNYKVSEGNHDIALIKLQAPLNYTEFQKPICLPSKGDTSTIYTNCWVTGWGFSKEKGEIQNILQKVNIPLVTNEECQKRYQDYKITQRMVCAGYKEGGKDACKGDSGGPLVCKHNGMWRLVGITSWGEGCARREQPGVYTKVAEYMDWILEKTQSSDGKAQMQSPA

B1: M29-E02 (Fab, V domains shown)
VH: EVQLLESGGGLVQPGGSLRLSCAASGFTFSRYPMMWVRQAPGKGLEWVSVIYPSGGDTFYADSVKGRFTISRDNSKNTLYLQMNSLRAEDTAVYYCASGDDYLWEAAVYWGQGTLVTVSS
VL: QSVLTQPPSVSEAPRQRVTISCSGSSSNIGNNAVSWYQQLPGKAPKLLIYYDDLLPSGVSDRFSGSKSGTSASLAISGLRSEDEADYYCAAWDDSLNGFVFGTGTKVTVL
Consider B1, for which the Human pKal ELISA (T/B) (T/B (target signal / background signal)) came out at 2.

B2: M28-F01 (Fab, V domains shown)
VH: EVQLLESGGGLVQPGGSLRLSCAASGFTFSVYLMHWVRQAPGKGLEWVSGISPSGGYTQYADSVKGRFTISRDNSKNTLYLQMNSLRAEDTAVYYCARPGGLDAFDIWGQGTMVTVSS
VL: DIQMTQSPSSLSASVGDRVTITCRASQSINTYLNWYQQKPGKAPKVLIHAASTLESGVPSRFSGSGSGTDFTLTISSLQPEDFATYYCQQSYSTPPTFGQGTKVEIK
As to B2, the Human pKal ELISA (T/B) (T/B (target signal / background signal)) is 1.5.
